These results are taken from paper PMC420458 (BMC Cell Biology, 2004).

One experiment concerns the target GST-APC10 (UniProt Q9UM13 1-185). Put plainly: pull-down.
The next experiment concerns the target T1, GST-HEF1 (human, UniProt Q14511 1-834).
T1 sequence: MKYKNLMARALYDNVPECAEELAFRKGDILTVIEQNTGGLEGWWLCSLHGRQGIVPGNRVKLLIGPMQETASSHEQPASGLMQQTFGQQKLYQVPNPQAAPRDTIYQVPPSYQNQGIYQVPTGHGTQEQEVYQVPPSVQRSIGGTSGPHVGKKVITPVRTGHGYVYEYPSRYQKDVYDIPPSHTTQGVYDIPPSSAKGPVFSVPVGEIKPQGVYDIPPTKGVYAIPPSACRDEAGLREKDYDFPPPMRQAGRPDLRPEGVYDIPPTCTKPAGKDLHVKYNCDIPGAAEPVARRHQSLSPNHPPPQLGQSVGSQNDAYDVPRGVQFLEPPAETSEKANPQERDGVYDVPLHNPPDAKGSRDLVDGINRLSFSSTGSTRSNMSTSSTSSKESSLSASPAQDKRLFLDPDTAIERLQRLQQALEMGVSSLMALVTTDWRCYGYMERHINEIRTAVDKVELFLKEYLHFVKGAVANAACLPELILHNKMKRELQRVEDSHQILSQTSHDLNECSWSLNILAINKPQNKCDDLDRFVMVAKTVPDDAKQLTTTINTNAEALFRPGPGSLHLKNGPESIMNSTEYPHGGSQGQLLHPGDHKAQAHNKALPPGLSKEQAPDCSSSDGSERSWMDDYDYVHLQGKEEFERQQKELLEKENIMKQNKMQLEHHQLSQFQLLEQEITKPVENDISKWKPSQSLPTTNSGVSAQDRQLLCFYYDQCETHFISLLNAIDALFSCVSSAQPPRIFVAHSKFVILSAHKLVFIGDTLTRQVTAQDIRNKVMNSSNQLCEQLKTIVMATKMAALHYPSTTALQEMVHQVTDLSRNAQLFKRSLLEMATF
Put plainly: pull-down.

Chain of GST-APC10 (Q9UM13 whole entry): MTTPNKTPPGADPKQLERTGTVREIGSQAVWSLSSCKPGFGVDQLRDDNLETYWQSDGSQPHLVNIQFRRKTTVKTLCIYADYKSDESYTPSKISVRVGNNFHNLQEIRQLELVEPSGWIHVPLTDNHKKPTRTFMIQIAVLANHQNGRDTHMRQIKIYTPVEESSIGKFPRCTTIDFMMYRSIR

B1: Flag-tagged Smad3 d4 (domain or fragment)
chain: MSSILPFTPPIVKRLLGWKKGEQNGQEEKWCEKAVKSLVKKLKKTGQLDELEKAITTQNVNTKCITIPRSLDGRLQVSHRKGLPHVIYCRLWRWPDLHSHHELRAMELCEFAFNMKKDEVCVNPYHYQRVETPVLPPVLVPRHTEIPAEFPPLDDYSHSIPENTNFPAGIEPQSNIPETPPPGYLSEDGETSDHQMNHSMDAGSPNLSPNPMSPAHNNLDLQPVTYCEPAFWCSISYYELNQRVGETFHASQPSMTVDGFTDPSNSERFCLGLLSNVNRNAAVELTRRHIGRGVRLYYIG
Regarding B1, the “percent of input protein bound (densitometry)” value (from here on “percent of input protein bound”) was found to be 17% with GST-APC10 and 13% with GST-HEF1.

B2: Flag-tagged Smad3 d2 (domain or fragment)
chain: MSSILPFTPPIVKRLLGWKKGEQNGQEEKWCEKAVKSLVKKLKKTGQLDELEKAITTQNVNTKCITIPRSLDGRLQVSHRKGLPHVIYCRLWRWPDLHSHHELRAMELCEFAFNMKKDEVCVNPYHYQRVETPVLPPVLVPRHTEIPAEFPPLDDYSHSIPENTNFPAGIEPQSNIPETPPPGYLSEDGETSDHQMNHSMDAGSPNLSPNPMSPAHNNLDLQPVTYCEPAFWCSISYYELNQRVGETFHASQPSMTVDGFTDPSNSERFCLGLLSNVNRNAAVELTRRHIGRGVRLYYIGGEVFAECLSDSAIFVQSPNCNQRYGWHPATVCKIPPGCNLKIFNNQEFAALLAQSVNQGFE
As to B2, the “percent of input protein bound” value in the experiment with GST-APC10 worked out at 95%; in the experiment with GST-HEF1, 21%.

B3: Flag-tagged Smad3 d6 (domain or fragment)
chain: MSSILPFTPPIVKRLLGWKKGEQNGQEEKWCEKAVKSLVKKLKKTGQLDELEKAITTQNVNTKCITIPRSLDGRLQVSHRKGLPHVIYCRLWRWPDLHSHHELRAMELCEFAFNMKKDEVCVNPYHYQRVETPVLPPVLVPRHTEIPAEFPPLDDYSHSIPENTNFPAGIEPQSNIPETPPPGYLSEDGETSDHQMNHSMDAGSPNLSPNPMSPAHNNLDLQPVTYCEPAFWCSISYYELNQRVGETFHASQPSMTVDGFTDPSNSERFCLGLLSNVNRNAAVELTRRHIGRGVRLYYIGGEVFAECLSDSAIFVQSPNCNQRYGWHPA
On to B3, for which the “percent of input protein bound” value came to 34% with GST-APC10 and 23% with GST-HEF1.

B4: Smad3/Smad1/Smad3 chimera (other)
chain: MSSILPFTPPIVKRLLGWKKGEQNGQEEKWCEKAVKSLVKKLKKTGQLDELEKAITTQNVNTKCITIPRSLDGRLQVSHRKGLPHVIYCRLWRWPDLHSHHELRAMELCEFAFNMKKDEVCVNPYHYQRVETPVLPPVLVPRHTEIPAEFPPLDDYSHSIPENTNFPAGIEPQSNIPETPPPGYLSEDGETSDHQMNHSMDAGSPNLSPNPMSPAHNNLDLQPVTYCEPAFWCSISYYELNNRVGEAFHASSTSVLVDGFTDPSNNKNRFCLGLLSNVVNRNAAVELTRRHIGRGVRLYYIGGEVFAECLSDSAIFVQSPNCNQRYGWHPATVCKIPPGCNLKIFNNQEFAALLAQSVNQGFEAVYQLTRMCTIRMSFVKGWGAEYRRQTVTSTPCWIELHLNGPLQWLDKVLTQMGSPSIRCSSV
Consider B4, for which the “percent of input protein bound” value in the experiment with GST-APC10 was 20%; with GST-HEF1, 24%.
